Assay results reported in the supplement of paper PMC9170038.

Test system: MS2 coat protein
Test: apparent KD of MS2 coat protein; designed switch direction (-1 OFF switch, 1 ON switch): -1; higher = weaker reporter binding
Outline: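 The buffer was Tris-HCl pH 7.5 with KCl, MgCl2, BSA, DTT, tRNA and Tween-20. In it, SNAP-549-labelled MS2 coat protein was titrated in doubling steps from 0.7 or 1.5 nM to 3 µM over chip-bound RNA switches transcribed by stalled E. coli RNA polymerase on Illumina chips. Apparent KD is the per-design median over clusters of curve fits to normalised fluorescence.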

[1] = input ligand: microRNA oligo, concentration not stated
[2] = Eterna round: R95, input ligand: microRNA oligo, concentration not stated

Sequence	apparent KD of MS2 coat protein (input ligand: FMN 200 uM) [nM]	apparent KD of MS2 coat protein [1] [nM]	apparent KD of MS2 coat protein (input ligand: none) [nM]	apparent KD of MS2 coat protein (Eterna round: R95, input ligand: FMN 200 uM) [nM]	apparent KD of MS2 coat protein [2] [nM]	apparent KD of MS2 coat protein (Eterna round: R95, input ligand: none) [nM]
GCAGCUUAGUUAACAGACUGUUACAUGAGGAUCACCCAUGUACAGGAUAUGGUCUGGAUUACAGGCCAGAAGGGUACAAGCUGC [Eli exng3 - 018] (Eterna round: R96, puzzle: Exclusion NG 3)	9.62	9.01	11.5			
UUUAACGAUGAGGAUAUAUGAUAUCAAAGCAUCAUAGAAGGCAUCACAUGAGGAUCACCCAUGUGAUCUUCUUU [Mat - Exclusion 6 - JL Mod - D29] (Eterna round: R97, puzzle: Exclusion 6)	69.6		16.6			
ACAUGUUAUUUAGGAUAUUGGACACAUGAGGAUCACCCAUGUACCCGGAGGCUUUACUAUGAGUUCGAGAAGGAGAUGUACAUG [Ex NG2 #70] (Eterna round: R96, puzzle: Exclusion NG 2)	89.3	59.3	75.6			
CUGCUCCGUGUAGGAUAUGCGCGCAACCAACGCGCAGAAGGACAUGAGGAUCACCCAUGUAUGUUAUUAUCACGUGAAGCGCAA [Design 31] (Eterna round: R96, puzzle: Exclusion NG 1)	16	12.3	13.2			
GUUGUUACUGAGGAUAUUAUUUUAUUCGAUUGAUAAGAAGGCAGUACAUGAGGAUCACCCAUGUGGGUAGCUAG [Polaris20] (Eterna round: R97, puzzle: Exclusion 6)	434		95.5			
UGCAUGUAAGGAUAUGCAUCCGCCGACGUCCCGGCGGCACAGCAGAAGGUACAUGAGGAUCACCCAUGUGUCCC [Qusousar] (Eterna round: R96, puzzle: Exclusion 4)	449	24	31			
UUACGGAUAGAGGAUAUAUUAAGGAAGGUUUCGAUAGAAGGCUAGACAUGAGGAUCACCCAUGUAUAUUGGGAU [JR_Ex6_Sub073] (Eterna round: R97, puzzle: Exclusion 6)	164		97.9			
CUUUACAAGCUAAGAUCCUACAUGAGGAUCACCCAUGUGGUCCGGUGACGUGAGUCACCGGACUUAGCUCGUCUUGC [salish99_S_TOV1_R5_094] (Eterna round: R97, puzzle: Sensor, turn-off variant 1)	31.2		36.8			
AGAGGACAUGAGGAUCACCCAUGUAAGGAUAUGCGGAGAGUUUGGAGAGGUCGGGUAGGCAGAAGGUACAGGAG [JR_Exclu1_Sub050] (puzzle: Exclusion 1)				82.2	92.5	89.4
CUGGACAGAGGAUAUUGUGCUGCUGACAUGAGGAUCACCCAUGUAUGUUAACUCGGCCGUCGAGAAGGCUGACAGG [BotMod 17 - Jieux - Exclusion 5] (Eterna round: R97, puzzle: Exclusion 5)	14.3		19.2			
CUGAGAAUAGGAUAUACUAACAAUGGAGUAGCUUCACGUCAACAUGAGGAUCACCCAUGUAGAAGGGUUAGCGG [Eternabot (L1) Solution 33] (Eterna round: R97, puzzle: Exclusion 2)	25		30			
AAGAUUCUCAUGAGCUGGAACAUGAGGAUCACCCAUGUGUGUUGCUUUUUGCUCAAGGAAUCCAUUUCGAUCUUAUA [Eternabot (L1) Solution 43] (Eterna round: R97, puzzle: Sensor, turn-off variant 1)	62.9		71.8			
AACCUGAGGCUUUGCUUUAGGUGUACAUGAGGAUCACCCAUGUAGGAUAUGGUAGGCUUUGCUUACCAGAAGGACAUGUUAAUU [JL ENG3 1.11] (Eterna round: R96, puzzle: Exclusion NG 3)	201	48.9	47.1			
UCGGCGCGAGGAUAUACGGUUGCUUGGUAGGGUCGUGGCGUACAUGAGGAUCACCCAUGUAGAAGGCGCGCCGC [Apr-15 SS2-31] (puzzle: Exclusion 2)					15.9	
